# Experimental data: US20080254507A1
# Target: envelope glycoprotein derived from T-tropic HIV-1 (gp120, gp41) (HIV-1 (T-tropic))
# Test: cell-based or functional assay
row,Substance,concentration that inhibit 50% of syncytium formation (IC50)
1,His-tagged actinohivin monomer fusion protein (from UniProt Q9KWN0 47-160),0.58
2,His-tagged actinohivin dimer fusion protein (from UniProt Q9KWN0 47-160),0.235
